Literature values as cited in paper PMC12990809.

Legend:
Assay in all cases: pulldown
Settings in all cases: 20 nM protein, 1.5 uM RNA pool; 20 mM HEPES pH 7.8, 70 mM KCl, 10 mM NaCl, 10% glycerol, 2 mM DTT, 0.1 ug/uL BSA; 30 min, 4 C (protocol of this paper; not …); cited from earlier work
[1] = target: YBX2 (Homo sapiens) (UniProt Q9Y2T7)
[2] = target: YBX1 (Homo sapiens) (UniProt P67809)
[3] = target: T1, how (Drosophila melanogaster) (UniProt O01367)
T1 sequence: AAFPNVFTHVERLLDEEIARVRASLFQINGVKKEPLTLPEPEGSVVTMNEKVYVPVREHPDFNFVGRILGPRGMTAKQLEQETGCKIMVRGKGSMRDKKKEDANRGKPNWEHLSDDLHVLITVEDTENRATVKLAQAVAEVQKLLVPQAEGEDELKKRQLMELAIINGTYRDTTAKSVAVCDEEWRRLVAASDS

[4] = target: T2, tra2 (Drosophila melanogaster) (UniProt P19018)
T2 sequence: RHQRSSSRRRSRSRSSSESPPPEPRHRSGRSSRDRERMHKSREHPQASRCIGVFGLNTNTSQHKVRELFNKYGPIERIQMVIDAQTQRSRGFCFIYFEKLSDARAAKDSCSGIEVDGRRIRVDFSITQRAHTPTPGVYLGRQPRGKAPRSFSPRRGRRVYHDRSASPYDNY

[5] = target: T3, sm (Drosophila melanogaster) (UniProt A4UZQ5)
T3 sequence: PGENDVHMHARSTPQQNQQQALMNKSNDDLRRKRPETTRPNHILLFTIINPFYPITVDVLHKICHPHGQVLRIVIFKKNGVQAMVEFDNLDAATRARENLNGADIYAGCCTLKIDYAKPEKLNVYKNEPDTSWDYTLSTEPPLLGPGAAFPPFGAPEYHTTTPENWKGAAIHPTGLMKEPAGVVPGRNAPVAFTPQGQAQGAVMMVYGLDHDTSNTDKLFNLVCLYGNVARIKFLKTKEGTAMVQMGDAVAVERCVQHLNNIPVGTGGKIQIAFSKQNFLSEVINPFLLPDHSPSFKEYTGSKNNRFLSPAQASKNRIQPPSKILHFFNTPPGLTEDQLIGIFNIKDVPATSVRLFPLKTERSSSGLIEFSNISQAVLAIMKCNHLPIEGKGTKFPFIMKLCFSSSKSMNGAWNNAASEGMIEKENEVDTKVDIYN

[6] = target: T4, Cnot4 (Drosophila melanogaster) (UniProt M9MRH8)
T4 sequence: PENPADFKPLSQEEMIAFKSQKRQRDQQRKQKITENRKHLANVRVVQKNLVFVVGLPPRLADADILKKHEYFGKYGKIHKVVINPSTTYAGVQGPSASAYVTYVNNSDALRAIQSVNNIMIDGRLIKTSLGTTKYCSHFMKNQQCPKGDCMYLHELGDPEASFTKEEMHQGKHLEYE

[7] = target: SNRNP70 (Homo sapiens) (UniProt P08621)
Sequence of SNRNP70 (Homo sapiens) (P08621 55-225): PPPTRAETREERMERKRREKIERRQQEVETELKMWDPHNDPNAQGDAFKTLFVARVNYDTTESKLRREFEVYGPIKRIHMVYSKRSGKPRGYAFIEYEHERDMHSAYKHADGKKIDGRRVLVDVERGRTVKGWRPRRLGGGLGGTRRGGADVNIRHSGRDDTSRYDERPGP

[8] = target: T5, mxt (Drosophila melanogaster) (UniProt Q9VR35)
T5 sequence: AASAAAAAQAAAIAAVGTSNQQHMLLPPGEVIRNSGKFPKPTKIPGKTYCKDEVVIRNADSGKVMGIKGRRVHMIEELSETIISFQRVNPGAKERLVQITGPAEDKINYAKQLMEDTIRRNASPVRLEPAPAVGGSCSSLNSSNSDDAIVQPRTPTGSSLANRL

[9] = target: TARDBP (Homo sapiens) (UniProt Q13148)
Sequence of TARDBP (Homo sapiens) (Q13148 56-315): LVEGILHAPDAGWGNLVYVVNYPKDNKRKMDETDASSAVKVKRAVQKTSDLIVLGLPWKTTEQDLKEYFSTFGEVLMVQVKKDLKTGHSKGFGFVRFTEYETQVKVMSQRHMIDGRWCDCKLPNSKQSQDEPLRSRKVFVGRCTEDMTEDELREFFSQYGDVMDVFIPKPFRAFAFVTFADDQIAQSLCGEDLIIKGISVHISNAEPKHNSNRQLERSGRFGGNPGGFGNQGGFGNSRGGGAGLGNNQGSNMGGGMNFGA

[10] = target: ZCRB1 (Homo sapiens) (UniProt Q8TBF4)
Sequence of ZCRB1 (Homo sapiens) (Q8TBF4 1-132): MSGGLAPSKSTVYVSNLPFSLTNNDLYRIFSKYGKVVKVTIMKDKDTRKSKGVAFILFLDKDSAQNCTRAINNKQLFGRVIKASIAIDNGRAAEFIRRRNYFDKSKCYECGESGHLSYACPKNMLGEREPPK

[11] = target: T6, SRSF7 (Homo sapiens) (UniProt Q16629)
T6 sequence: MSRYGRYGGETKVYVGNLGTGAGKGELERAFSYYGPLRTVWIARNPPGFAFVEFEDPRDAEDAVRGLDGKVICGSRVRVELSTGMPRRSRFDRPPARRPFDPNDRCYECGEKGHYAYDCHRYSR

[12] = target: SRSF1 (Homo sapiens) (UniProt Q07955)
Sequence of SRSF1 (Homo sapiens) (Q07955 1-202): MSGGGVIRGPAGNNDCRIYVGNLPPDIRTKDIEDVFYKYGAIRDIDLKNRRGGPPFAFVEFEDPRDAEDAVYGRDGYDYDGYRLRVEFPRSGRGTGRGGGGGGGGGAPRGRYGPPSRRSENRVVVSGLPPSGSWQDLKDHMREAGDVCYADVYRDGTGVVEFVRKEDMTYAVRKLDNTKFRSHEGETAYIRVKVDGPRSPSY

[13] = target: T7, ZC3H10 (Homo sapiens) (UniProt Q96K80)
T7 sequence: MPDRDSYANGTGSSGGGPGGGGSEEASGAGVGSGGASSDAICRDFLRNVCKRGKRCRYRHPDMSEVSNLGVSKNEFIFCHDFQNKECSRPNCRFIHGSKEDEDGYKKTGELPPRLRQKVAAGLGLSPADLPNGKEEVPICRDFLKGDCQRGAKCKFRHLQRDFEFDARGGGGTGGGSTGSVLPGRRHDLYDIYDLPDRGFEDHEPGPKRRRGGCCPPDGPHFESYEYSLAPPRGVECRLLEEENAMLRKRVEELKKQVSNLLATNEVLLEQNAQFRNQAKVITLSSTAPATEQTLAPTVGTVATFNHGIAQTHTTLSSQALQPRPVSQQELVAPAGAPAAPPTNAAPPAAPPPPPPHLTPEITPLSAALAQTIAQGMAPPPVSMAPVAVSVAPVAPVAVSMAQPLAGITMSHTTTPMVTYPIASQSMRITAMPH

[14] = target: T8, VTS1 S437M (Saccharomyces cerevisiae) (UniProt Q08831)
T8 sequence: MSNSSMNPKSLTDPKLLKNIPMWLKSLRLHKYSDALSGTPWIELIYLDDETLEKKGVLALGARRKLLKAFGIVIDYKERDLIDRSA

[15] = target: Hrb98DE (Drosophila melanogaster) (UniProt P07909)
Sequence of Hrb98DE (Drosophila melanogaster) (P07909 whole entry): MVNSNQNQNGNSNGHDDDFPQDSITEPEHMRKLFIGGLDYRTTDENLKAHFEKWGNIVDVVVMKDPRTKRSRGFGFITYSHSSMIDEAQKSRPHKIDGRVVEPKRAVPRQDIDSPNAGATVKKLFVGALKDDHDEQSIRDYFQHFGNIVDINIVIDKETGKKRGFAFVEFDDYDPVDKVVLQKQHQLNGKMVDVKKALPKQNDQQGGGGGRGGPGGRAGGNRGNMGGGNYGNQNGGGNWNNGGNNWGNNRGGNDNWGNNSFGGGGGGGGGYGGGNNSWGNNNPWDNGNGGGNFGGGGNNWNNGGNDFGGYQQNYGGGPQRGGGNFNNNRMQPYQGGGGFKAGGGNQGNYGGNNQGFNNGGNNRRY

[16] = target: T9, msi (Drosophila melanogaster) (UniProt H9ZJL0)
T9 sequence: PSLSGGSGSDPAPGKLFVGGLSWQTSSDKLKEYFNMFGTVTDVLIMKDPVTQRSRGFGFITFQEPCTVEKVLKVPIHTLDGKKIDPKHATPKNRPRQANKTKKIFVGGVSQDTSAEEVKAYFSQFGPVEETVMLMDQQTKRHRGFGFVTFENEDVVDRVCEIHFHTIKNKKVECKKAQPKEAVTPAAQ

[17] = target: T10, bru-3 (Drosophila melanogaster) (UniProt Q7K305)
T10 sequence: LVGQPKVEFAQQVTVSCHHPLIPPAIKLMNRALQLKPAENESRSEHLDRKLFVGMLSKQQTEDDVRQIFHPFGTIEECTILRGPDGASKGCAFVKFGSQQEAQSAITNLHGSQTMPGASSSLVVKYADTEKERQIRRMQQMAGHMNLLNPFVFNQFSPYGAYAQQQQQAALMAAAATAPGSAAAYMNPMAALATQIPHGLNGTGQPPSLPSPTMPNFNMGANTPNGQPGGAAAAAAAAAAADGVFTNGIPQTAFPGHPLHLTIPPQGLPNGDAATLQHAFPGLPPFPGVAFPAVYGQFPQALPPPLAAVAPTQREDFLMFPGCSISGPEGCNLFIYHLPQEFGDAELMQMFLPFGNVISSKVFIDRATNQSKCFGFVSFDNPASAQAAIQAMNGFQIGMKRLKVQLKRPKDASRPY

[18] = target: T11, A2bp1 (Drosophila melanogaster) (UniProt Q9VT99)
T11 sequence: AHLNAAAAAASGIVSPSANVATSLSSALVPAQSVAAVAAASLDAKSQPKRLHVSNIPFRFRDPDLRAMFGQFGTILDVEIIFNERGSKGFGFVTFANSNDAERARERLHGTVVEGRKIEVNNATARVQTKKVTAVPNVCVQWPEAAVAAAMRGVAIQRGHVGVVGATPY

[19] = target: unc-75 (Caenorhabditis elegans) (UniProt G5EE68)
[20] = target: SNRPA (Homo sapiens) (UniProt P09012)
Sequence of SNRPA (Homo sapiens) (P09012 whole entry): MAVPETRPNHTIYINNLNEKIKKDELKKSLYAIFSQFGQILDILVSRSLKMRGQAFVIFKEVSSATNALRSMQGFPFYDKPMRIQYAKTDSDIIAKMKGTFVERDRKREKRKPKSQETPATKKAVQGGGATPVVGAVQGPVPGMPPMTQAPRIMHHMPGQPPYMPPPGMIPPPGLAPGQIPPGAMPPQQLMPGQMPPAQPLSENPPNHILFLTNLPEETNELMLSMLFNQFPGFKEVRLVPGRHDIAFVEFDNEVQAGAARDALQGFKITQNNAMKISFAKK

[21] = target: U2AF2 (Homo sapiens) (UniProt P26368)
Sequence of U2AF2 (Homo sapiens) (P26368 101-475): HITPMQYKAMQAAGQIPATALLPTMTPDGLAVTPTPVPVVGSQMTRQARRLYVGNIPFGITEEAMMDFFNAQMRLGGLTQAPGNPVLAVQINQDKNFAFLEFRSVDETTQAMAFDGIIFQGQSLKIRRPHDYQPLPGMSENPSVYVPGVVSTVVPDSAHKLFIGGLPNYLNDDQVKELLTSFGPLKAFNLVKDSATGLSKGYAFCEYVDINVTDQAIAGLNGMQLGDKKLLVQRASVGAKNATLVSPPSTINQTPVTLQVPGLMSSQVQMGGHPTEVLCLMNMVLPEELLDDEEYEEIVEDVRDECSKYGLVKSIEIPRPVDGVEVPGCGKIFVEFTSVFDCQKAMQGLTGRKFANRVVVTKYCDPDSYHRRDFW

[22] = target: U2af50 (Drosophila melanogaster) (UniProt Q24562)
Sequence of U2af50 (Drosophila melanogaster) (Q24562 45-416): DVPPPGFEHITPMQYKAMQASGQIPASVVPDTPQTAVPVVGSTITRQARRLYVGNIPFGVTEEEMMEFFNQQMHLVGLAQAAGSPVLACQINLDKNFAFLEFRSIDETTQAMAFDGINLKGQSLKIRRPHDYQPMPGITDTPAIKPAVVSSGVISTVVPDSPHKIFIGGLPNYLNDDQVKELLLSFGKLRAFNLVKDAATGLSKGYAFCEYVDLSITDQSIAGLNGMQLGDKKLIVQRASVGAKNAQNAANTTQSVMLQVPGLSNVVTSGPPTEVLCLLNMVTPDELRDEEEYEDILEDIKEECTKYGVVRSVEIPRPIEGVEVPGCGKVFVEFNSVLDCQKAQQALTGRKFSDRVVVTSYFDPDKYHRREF

[23] = target: T12, TIA1 (Homo sapiens) (UniProt P31483)
T12 sequence: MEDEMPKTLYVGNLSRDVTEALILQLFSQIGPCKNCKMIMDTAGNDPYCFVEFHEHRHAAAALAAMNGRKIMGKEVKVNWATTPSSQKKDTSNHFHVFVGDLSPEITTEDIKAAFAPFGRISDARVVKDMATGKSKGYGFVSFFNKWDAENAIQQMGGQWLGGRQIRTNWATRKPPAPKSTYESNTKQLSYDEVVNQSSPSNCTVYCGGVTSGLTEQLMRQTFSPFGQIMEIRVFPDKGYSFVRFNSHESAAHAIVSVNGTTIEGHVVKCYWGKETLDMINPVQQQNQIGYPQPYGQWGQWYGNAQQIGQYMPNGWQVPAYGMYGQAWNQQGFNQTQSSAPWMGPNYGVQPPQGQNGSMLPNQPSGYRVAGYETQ

[24] = target: T13, orb2 (Drosophila melanogaster) (UniProt Q9VSR3)
T13 sequence: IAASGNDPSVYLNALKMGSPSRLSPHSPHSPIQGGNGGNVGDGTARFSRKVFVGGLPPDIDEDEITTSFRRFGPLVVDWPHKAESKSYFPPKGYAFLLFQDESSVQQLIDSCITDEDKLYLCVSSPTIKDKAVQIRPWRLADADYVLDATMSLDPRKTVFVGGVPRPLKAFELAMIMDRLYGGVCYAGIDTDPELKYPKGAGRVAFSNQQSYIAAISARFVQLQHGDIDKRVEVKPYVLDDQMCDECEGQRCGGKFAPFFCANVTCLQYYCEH

[25] = target: T14, Sxl (Drosophila melanogaster) (UniProt P19339)
T14 sequence: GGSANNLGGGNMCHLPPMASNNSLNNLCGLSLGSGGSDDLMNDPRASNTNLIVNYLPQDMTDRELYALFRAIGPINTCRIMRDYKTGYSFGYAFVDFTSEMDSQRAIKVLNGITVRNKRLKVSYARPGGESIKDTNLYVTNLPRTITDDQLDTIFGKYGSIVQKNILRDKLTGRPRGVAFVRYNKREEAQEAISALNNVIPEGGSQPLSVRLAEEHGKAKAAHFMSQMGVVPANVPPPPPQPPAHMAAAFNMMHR

[26] = target: fne (Drosophila melanogaster) (UniProt Q7KIS3)
Sequence of fne (Drosophila melanogaster) (Q7KIS3 entry or part of it): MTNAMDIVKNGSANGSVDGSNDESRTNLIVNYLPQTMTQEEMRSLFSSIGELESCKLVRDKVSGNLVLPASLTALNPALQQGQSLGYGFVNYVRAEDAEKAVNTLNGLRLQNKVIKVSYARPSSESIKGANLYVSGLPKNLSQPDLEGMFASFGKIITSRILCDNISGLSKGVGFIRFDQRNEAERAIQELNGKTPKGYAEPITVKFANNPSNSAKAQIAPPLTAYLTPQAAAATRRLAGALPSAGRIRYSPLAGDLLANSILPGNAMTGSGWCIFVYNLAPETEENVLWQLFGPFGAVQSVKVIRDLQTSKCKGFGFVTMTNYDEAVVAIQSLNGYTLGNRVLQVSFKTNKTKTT

[27] = target: T15, elav (Drosophila melanogaster) (UniProt P16914)
T15 sequence: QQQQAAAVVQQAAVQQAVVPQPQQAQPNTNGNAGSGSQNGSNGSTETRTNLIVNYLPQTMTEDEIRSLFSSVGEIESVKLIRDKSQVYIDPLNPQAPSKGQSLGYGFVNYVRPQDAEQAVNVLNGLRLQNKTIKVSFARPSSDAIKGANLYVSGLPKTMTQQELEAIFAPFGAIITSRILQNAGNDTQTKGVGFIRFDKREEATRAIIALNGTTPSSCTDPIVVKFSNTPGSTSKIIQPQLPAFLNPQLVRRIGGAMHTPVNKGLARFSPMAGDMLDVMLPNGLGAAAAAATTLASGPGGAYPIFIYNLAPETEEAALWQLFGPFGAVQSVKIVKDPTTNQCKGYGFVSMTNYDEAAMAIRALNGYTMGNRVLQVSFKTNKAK

Sequence of YBX1 (Homo sapiens) (P67809 whole entry): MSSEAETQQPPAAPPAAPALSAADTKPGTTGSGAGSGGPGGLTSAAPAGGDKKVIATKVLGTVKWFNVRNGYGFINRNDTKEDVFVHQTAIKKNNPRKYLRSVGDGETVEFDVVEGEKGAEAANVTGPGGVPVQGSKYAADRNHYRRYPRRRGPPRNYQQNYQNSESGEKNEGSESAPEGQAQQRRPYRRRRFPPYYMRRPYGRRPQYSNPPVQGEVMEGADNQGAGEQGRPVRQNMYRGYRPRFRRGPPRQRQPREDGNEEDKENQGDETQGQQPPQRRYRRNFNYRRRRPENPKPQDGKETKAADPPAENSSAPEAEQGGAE
Sequence of YBX2 (Homo sapiens) (Q9Y2T7 whole entry): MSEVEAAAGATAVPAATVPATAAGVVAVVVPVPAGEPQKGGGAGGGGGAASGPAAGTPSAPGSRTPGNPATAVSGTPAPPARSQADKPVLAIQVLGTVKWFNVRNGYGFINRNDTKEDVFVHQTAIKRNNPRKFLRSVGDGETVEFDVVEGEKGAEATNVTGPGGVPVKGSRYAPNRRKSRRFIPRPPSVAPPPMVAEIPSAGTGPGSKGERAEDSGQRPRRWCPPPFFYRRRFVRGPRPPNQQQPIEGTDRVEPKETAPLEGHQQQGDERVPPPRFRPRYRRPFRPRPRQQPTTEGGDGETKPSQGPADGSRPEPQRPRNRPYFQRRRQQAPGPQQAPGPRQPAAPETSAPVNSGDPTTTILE

## AACANC [RNAcompete motif RNCMPT00084]
[1]
  binding signal (z-score (mean of top ten 7-mers)): 9.95

## AACAUC [RNAcompete motif RNCMPT00083]
[2]
  binding signal (z-score (mean of top ten 7-mers)): 14.5

## ACUAAC [RNAcompete motif RNCMPT00118]
[3]
  binding signal (z-score (mean of top ten 7-mers)): 25.4

## AGAAGA [RNAcompete motif RNCMPT00078]
[4]
  binding signal (z-score (mean of top ten 7-mers)): 7.09

## AGACAC [RNAcompete motif RNCMPT00069]
[5]
  binding signal (z-score (mean of top ten 7-mers)): 11.2

## AGACACA [RNAcompete motif RNCMPT00008]
[6]
  binding signal (z-score (mean of top ten 7-mers)): 12.4

## AUCAAG [RNAcompete motif RNCMPT00070]
[7]
  binding signal (z-score (mean of top ten 7-mers)): 8.16

## CAACGA [RNAcompete motif RNCMPT00007]
[8]
  binding signal (z-score (mean of top ten 7-mers)): 13.9

## GAAUGA [RNAcompete motif RNCMPT00076]
[9]
  binding signal (z-score (mean of top ten 7-mers)): 9.33

## GAAUUAAG [RNAcompete motif RNCMPT00087]
[10]
  binding signal (z-score (mean of top ten 7-mers)): 12

## GACGACG [RNAcompete motif RNCMPT00073]
[11]
  binding signal (z-score (mean of top ten 7-mers)): 11.3

## GAGGAGC [RNAcompete motif RNCMPT00163]
[12]
  binding signal (z-score (mean of top ten 7-mers)): 11.3

## GCAGCGCG [RNAcompete motif RNCMPT00085]
[13]
  binding signal (z-score (mean of top ten 7-mers)): 16.6

## GCUGGCC [RNAcompete motif RNCMPT00111]
[14]
  binding signal (z-score (mean of top ten 7-mers)): 24.3

## GGUAGGG [RNAcompete motif RNCMPT00096]
[15]
  binding signal (z-score (mean of top ten 7-mers)): 21.8

## GUAGUU [RNAcompete motif RNCMPT00099]
[16]
  binding signal (z-score (mean of top ten 7-mers)): 11.6

## GUGUUGU [RNAcompete motif RNCMPT00122]
[17]
  binding signal (z-score (mean of top ten 7-mers)): 20.4

## UGCAUG [RNAcompete motif RNCMPT00123]
[18]
  binding signal (z-score (mean of top ten 7-mers)): 21.3

## UGUUGUG [RNAcompete motif RNCMPT00081]
[19]
  binding signal (z-score (mean of top ten 7-mers)): 10.4

## UUGCACA [RNAcompete motif RNCMPT00071]
[20]
  binding signal (z-score (mean of top ten 7-mers)): 10.9

## UUUUUCC [RNAcompete motif RNCMPT00079]
[21]
  binding signal (z-score (mean of top ten 7-mers)): 17

## UUUUUCC [RNAcompete motif RNCMPT00080]
[22]
  binding signal (z-score (mean of top ten 7-mers)): 12.8

## UUUUUU [RNAcompete motif RNCMPT00165]
[23]
  binding signal (z-score (mean of top ten 7-mers)): 9.41

## UUUUUUG [RNAcompete motif RNCMPT00126]
[24]
  binding signal (z-score (mean of top ten 7-mers)): 15.9

## UUUUUUU [RNAcompete motif RNCMPT00119]
[25]
  binding signal (z-score (mean of top ten 7-mers)): 17.2

## UUUUUUU [RNAcompete motif RNCMPT00120]
[26]
  binding signal (z-score (mean of top ten 7-mers)): 12.7

## UUUUUUU [RNAcompete motif RNCMPT00121]
[27]
  binding signal (z-score (mean of top ten 7-mers)): 17.2
